In patent US20040071698A1 (UAB RESEARCH FOUNDATION, published 2004):

What was measured:
[1] = target: T1, wild-type EGFR on U87MG.wtEGFR human glioma cells (UniProt P00533 25-1210, limits assumed); test: FACS on U87MG.wtEGFR cells, culture medium, anti-alpha tubulin and FITC anti-rat detection
T1 construct: whole, on cells; Estimated at >3x10^6 EGFR per cell; also called native full length epidermal growth factor receptor
Protocol: (§1) The cells, U87MG, U87MG.wtEGFR and U87MG.AEGFR were incubated with culture medium, culture medium from pSECTAG or p6.34 for 30 min at 4° C. The cells were washed, then incubated with rat anti-alpha tubulin followed by FITC-labeled anti-rat antibody.
(§2) The EGFR has three major domains, intracellular, transmembrane and extracellular, any of which may serve as the binding site for clone p6.34. To examine whether the scFv binds to the extracellular portion of the receptor, a FACS analysis was used for this determination. For this assay, culture medium collected from U87MG.pSECTAG or U87MG.pSECTAG.6.34.A8 was allowed to interact with the cell surface of 3 different human glioma sublines; U87MG, U87MG.wtEGFR and U87MG.AEGFR (provided by Dr. H-J. Su Huang, UCSD).

[2] = target: T2, truncated EGFR, EGFRvIII, on U87MG.deltaEGFR human glioma cells (UniProt P00533 25-1210); test: FACS on U87MG.deltaEGFR cells, culture medium, anti-alpha tubulin and FITC anti-rat detection
T2 construct: whole, on cells; also called U87MG.AEGFR; truncated and/or mutated epidermal growth factor receptor
Protocol: as §1, §2

B1: secretory anti-EGFR scFv clone 6 secreted by stably transfected U87MG.6.34.A8 cells (clone p6.34) (scFv, not shown: small tags and cut ends)
scFv: EVQLVESGGGLVQPGGSLRLSCSASGFTFSSYAMHWVRQAPGKGLEYVSAISSNGGSTYYADSVKGRFTISRDNSKNTLYLQMSSLRAEDTAVYYCVKDVGGSSWYWADYFDYWGQGTLVTVSSGSASAPKLEEGEFSEARVQSVLTQPPSLSVSPGQTASITCSGDKLGDKYASWYQQKPGQSPVLVIYQDRKRPSGIPERFSGSNSGNTATLTISGTQAMDEADYYCQAWDSSTPYVFGTGTKVTVLGQPKANPTVTLFPPSSAAA
notes: The scFv insert was moved from pSEX81 as a Bpu1102I/NotI fragment behind an Ig kappa leader; also called scFv p6.34; clone p6.34 scFv
B1: binds [1]; binds [2].
